What was measured:
[1] = substrate: Nc1ncnc2c1ncn2[C@@H]1O[C@H](COP(=O)(O)OP(=O)(O)OP(=O)(O)O)[C@@H](O)[C@H]1O; experiment: phosphate release, BIOMOL Green; type: biochemical, Homo sapiens; conditions: 50 mM HEPES-KOH pH 7.5, 100 mM NaCl, 5 mM MgCl2, 37 °C
[2] = substrate: Nc1ncnc2c1ncn2[C@@H]1O[C@H](COP(=O)(O)OP(=O)(O)OP(=O)(O)O)[C@@H](O)[C@H]1O; experiment: phosphate release, BIOMOL Green; type: biochemical, Aquifex aeolicus; conditions: 50 mM HEPES-KOH pH 7.5, 100 mM NaCl, 5 mM MgCl2, 70 °C

B1: ProS2-fused human PMS2 NTD (Homo sapiens; K91R) (protein)
chain: MERAESSSTEPAKAIKPIDRKSVHQICSGQVVLSLSTAVKELVENSLDAGATNIDLKLKDYGVDLIEVSDNGCGVEEENFEGLTLKHHTSRIQEFADLTQVETFGFRGEALSSLCALSDVTISTCHASAKVGTRLMFDHNGKIIQKTPYPRPRGTTVSVQQLFSTLPVRHKEFQRNIKKEYAKMVQVLHAYCIISAGIRVSCTNQLGQGKRQPVVCTGGSPSIKENIGSVFGQKQLQSLIPFVQLPPSDSVCEEYGLSCSDALHNLFYISGFISQCTHGVGRSSTDRQFFFINRRPCDPAKVCRLVNEVYHMYNRHQYPFVVLNISVDSECVDINVTPDKRQILLQEEKLLLAVLKTSLIGMFDS
Km [1]: 300 ± 42 µM | kcat [1]: 0.000733 ± 2.83e-05 s⁻¹

B2: ProS2-fused human PMS2 NTD (Homo sapiens) (protein)
chain: MERAESSSTEPAKAIKPIDRKSVHQICSGQVVLSLSTAVKELVENSLDAGATNIDLKLKDYGVDLIEVSDNGCGVEEENFEGLTLKHHTSKIQEFADLTQVETFGFRGEALSSLCALSDVTISTCHASAKVGTRLMFDHNGKIIQKTPYPRPRGTTVSVQQLFSTLPVRHKEFQRNIKKEYAKMVQVLHAYCIISAGIRVSCTNQLGQGKRQPVVCTGGSPSIKENIGSVFGQKQLQSLIPFVQLPPSDSVCEEYGLSCSDALHNLFYISGFISQCTHGVGRSSTDRQFFFINRRPCDPAKVCRLVNEVYHMYNRHQYPFVVLNISVDSECVDINVTPDKRQILLQEEKLLLAVLKTSLIGMFDS
Km [1]: 190 ± 39 µM | kcat [1]: 0.00617 ± 0.0003 s⁻¹

B3: ProS2-fused human PMS2 NTD (Homo sapiens; K340E) (protein)
chain: MERAESSSTEPAKAIKPIDRKSVHQICSGQVVLSLSTAVKELVENSLDAGATNIDLKLKDYGVDLIEVSDNGCGVEEENFEGLTLKHHTSKIQEFADLTQVETFGFRGEALSSLCALSDVTISTCHASAKVGTRLMFDHNGKIIQKTPYPRPRGTTVSVQQLFSTLPVRHKEFQRNIKKEYAKMVQVLHAYCIISAGIRVSCTNQLGQGKRQPVVCTGGSPSIKENIGSVFGQKQLQSLIPFVQLPPSDSVCEEYGLSCSDALHNLFYISGFISQCTHGVGRSSTDRQFFFINRRPCDPAKVCRLVNEVYHMYNRHQYPFVVLNISVDSECVDINVTPDERQILLQEEKLLLAVLKTSLIGMFDS
Km [1]: 80 ± 12 µM | kcat [1]: 0.000483 ± 3e-05 s⁻¹

B4: ProS2-fused human PMS2 NTD (Homo sapiens; K340A) (protein)
chain: MERAESSSTEPAKAIKPIDRKSVHQICSGQVVLSLSTAVKELVENSLDAGATNIDLKLKDYGVDLIEVSDNGCGVEEENFEGLTLKHHTSKIQEFADLTQVETFGFRGEALSSLCALSDVTISTCHASAKVGTRLMFDHNGKIIQKTPYPRPRGTTVSVQQLFSTLPVRHKEFQRNIKKEYAKMVQVLHAYCIISAGIRVSCTNQLGQGKRQPVVCTGGSPSIKENIGSVFGQKQLQSLIPFVQLPPSDSVCEEYGLSCSDALHNLFYISGFISQCTHGVGRSSTDRQFFFINRRPCDPAKVCRLVNEVYHMYNRHQYPFVVLNISVDSECVDINVTPDARQILLQEEKLLLAVLKTSLIGMFDS
Km [1]: 160 ± 93 µM | kcat [1]: 0.00105 ± 0.000135 s⁻¹

B5: histidine-tagged human MLH1 NTD (Homo sapiens; K311E) (protein)
chain: MSFVAGVIRRLDETVVNRIAAGEVIQRPANAIKEMIENCLDAKSTSIQVIVKEGGLKLIQIQDNGTGIRKEDLDIVCERFTTSKLQSFEDLASISTYGFRGEALASISHVAHVTITTKTADGKCAYRASYSDGKLKAPPKPCAGNQGTQITVEDLFYNIATRRKALKNPSEEYGKILEVVGRYSVHNAGISFSVKKQGETVADVRTLPNASTVDNIRSIFGNAVSRELIEIGCEDKTLAFKMNGYISNANYSVKKCIFLLFINHRLVESTSLRKAIETVYAAYLPKNTHPFLYLSLEISPQNVDVNVHPTEHEVHFLHEESILERVQQHIESKLLG
Km [1]: 750 ± 130 µM | kcat [1]: 0.000333 ± 5e-05 s⁻¹

B6: histidine-tagged human MLH1 NTD (Homo sapiens) (protein)
chain: MSFVAGVIRRLDETVVNRIAAGEVIQRPANAIKEMIENCLDAKSTSIQVIVKEGGLKLIQIQDNGTGIRKEDLDIVCERFTTSKLQSFEDLASISTYGFRGEALASISHVAHVTITTKTADGKCAYRASYSDGKLKAPPKPCAGNQGTQITVEDLFYNIATRRKALKNPSEEYGKILEVVGRYSVHNAGISFSVKKQGETVADVRTLPNASTVDNIRSIFGNAVSRELIEIGCEDKTLAFKMNGYISNANYSVKKCIFLLFINHRLVESTSLRKAIETVYAAYLPKNTHPFLYLSLEISPQNVDVNVHPTKHEVHFLHEESILERVQQHIESKLLG
Km [1]: 790 ± 75 µM | kcat [1]: 0.00267 ± 0.000108 s⁻¹

B7: aqGyrB NTD (Aquifex aeolicus VF5) (protein)
chain: MKKRQSQTPQEYTAEAIKAVSGLEHVRLRPAMYIGDIGERGLHHLIWEILDNAVDEAVAGYARNISVTIHRDNSVTVEDDGRGIPVDIHPETGKPAVEMVFTMLGAGGKFEKKVYTYSGGLHGVGASVVNALSEWLIVEVYRDGKIYRMAFKRGEVVEPLHVVGETKKRGTKVSFKPDPEIFETTEIKFDIVEKRVRELAYLNPEVKFELTDERLGKHLIYKFDRGIEELVKYLNEGKEPLFKDIIRIQGEKEGVIVDIAFQYVKDYKERIESFVNNIKTVEGGTHVTGFRSGLSKAVIRMAQGLKLAKELKKSFTGEDVREGLTAVVACKVPNPQFEGQTKTKLGNQNVKQIVESITYDFLTSYFEKKRDVLKAIVEKAIEAALAREAAKKAKELV
Km [2]: 250 ± 41 µM | kcat [2]: 0.0367 ± 0.00217 s⁻¹

B8: full-length aqMutL (Aquifex aeolicus VF5) (protein)
chain: MFVKLLPPEVRKVIAAGEVIESPVDVVKELVENSLDAKATKVEVEIVKGGKRLIRVKDNGTGIHPEDVEKVVLQGATSKIETEKDLMNISTYGFRGEALYSISSVSKFKLRSRFFQEKEGKEIEVEAGNILGTRRVGMPVGTEVEVRDLFFNLPVRRKFLKKEDTERRKVLELIKEYALTNPEVEFTLFSEGRETLKLKKSSLKERVEEVFQTKTEELYAEREGITLRAFVSRNQRQGKYYVFINKRPIQNKNLKEFLRKVFGYKTLVVLYAELPPFMVDFNVHPKKKEVNILKERKFLELVRELAGKEKPIVDIPLSQPVKTYKPTYEILGQMDETFILVKDSEYLYFVDQHLLEERINYEKLKDENLACRISVKAGQKLSEEKIRELIKTWRNLENPHVCPHGRPIYYKIPLREIYEKVGRNY
Km [2]: 360 ± 190 µM | kcat [2]: 0.025 ± 0.0025 s⁻¹

B9: full-length aqMutL (Aquifex aeolicus VF5; N282A) (protein)
chain: MFVKLLPPEVRKVIAAGEVIESPVDVVKELVENSLDAKATKVEVEIVKGGKRLIRVKDNGTGIHPEDVEKVVLQGATSKIETEKDLMNISTYGFRGEALYSISSVSKFKLRSRFFQEKEGKEIEVEAGNILGTRRVGMPVGTEVEVRDLFFNLPVRRKFLKKEDTERRKVLELIKEYALTNPEVEFTLFSEGRETLKLKKSSLKERVEEVFQTKTEELYAEREGITLRAFVSRNQRQGKYYVFINKRPIQNKNLKEFLRKVFGYKTLVVLYAELPPFMVDFAVHPKKKEVNILKERKFLELVRELAGKEKPIVDIPLSQPVKTYKPTYEILGQMDETFILVKDSEYLYFVDQHLLEERINYEKLKDENLACRISVKAGQKLSEEKIRELIKTWRNLENPHVCPHGRPIYYKIPLREIYEKVGRNY
Km [2]: 560 ± 54 µM | kcat [2]: 0.000483 ± 1.67e-05 s⁻¹

B10: full-length aqMutL (Aquifex aeolicus VF5; K287A) (protein)
chain: MFVKLLPPEVRKVIAAGEVIESPVDVVKELVENSLDAKATKVEVEIVKGGKRLIRVKDNGTGIHPEDVEKVVLQGATSKIETEKDLMNISTYGFRGEALYSISSVSKFKLRSRFFQEKEGKEIEVEAGNILGTRRVGMPVGTEVEVRDLFFNLPVRRKFLKKEDTERRKVLELIKEYALTNPEVEFTLFSEGRETLKLKKSSLKERVEEVFQTKTEELYAEREGITLRAFVSRNQRQGKYYVFINKRPIQNKNLKEFLRKVFGYKTLVVLYAELPPFMVDFNVHPKAKEVNILKERKFLELVRELAGKEKPIVDIPLSQPVKTYKPTYEILGQMDETFILVKDSEYLYFVDQHLLEERINYEKLKDENLACRISVKAGQKLSEEKIRELIKTWRNLENPHVCPHGRPIYYKIPLREIYEKVGRNY
Km [2]: 370 ± 36 µM | kcat [2]: 0.00767 ± 0.000383 s⁻¹

B11: full-length aqMutL (Aquifex aeolicus VF5; K28E) (protein)
chain: MFVKLLPPEVRKVIAAGEVIESPVDVVEELVENSLDAKATKVEVEIVKGGKRLIRVKDNGTGIHPEDVEKVVLQGATSKIETEKDLMNISTYGFRGEALYSISSVSKFKLRSRFFQEKEGKEIEVEAGNILGTRRVGMPVGTEVEVRDLFFNLPVRRKFLKKEDTERRKVLELIKEYALTNPEVEFTLFSEGRETLKLKKSSLKERVEEVFQTKTEELYAEREGITLRAFVSRNQRQGKYYVFINKRPIQNKNLKEFLRKVFGYKTLVVLYAELPPFMVDFNVHPKKKEVNILKERKFLELVRELAGKEKPIVDIPLSQPVKTYKPTYEILGQMDETFILVKDSEYLYFVDQHLLEERINYEKLKDENLACRISVKAGQKLSEEKIRELIKTWRNLENPHVCPHGRPIYYKIPLREIYEKVGRNY
Km [2]: 900 ± 73 µM | kcat [2]: 0.00733 ± 0.000367 s⁻¹

B12: full-length aqMutL (Aquifex aeolicus VF5; K79R) (protein)
chain: MFVKLLPPEVRKVIAAGEVIESPVDVVKELVENSLDAKATKVEVEIVKGGKRLIRVKDNGTGIHPEDVEKVVLQGATSRIETEKDLMNISTYGFRGEALYSISSVSKFKLRSRFFQEKEGKEIEVEAGNILGTRRVGMPVGTEVEVRDLFFNLPVRRKFLKKEDTERRKVLELIKEYALTNPEVEFTLFSEGRETLKLKKSSLKERVEEVFQTKTEELYAEREGITLRAFVSRNQRQGKYYVFINKRPIQNKNLKEFLRKVFGYKTLVVLYAELPPFMVDFNVHPKKKEVNILKERKFLELVRELAGKEKPIVDIPLSQPVKTYKPTYEILGQMDETFILVKDSEYLYFVDQHLLEERINYEKLKDENLACRISVKAGQKLSEEKIRELIKTWRNLENPHVCPHGRPIYYKIPLREIYEKVGRNY
Km [2]: 610 ± 130 µM | kcat [2]: 0.00283 ± 0.000233 s⁻¹

Reference: article doi:10.1101/2021.07.09.451751v1
